According to patent US20060148030A1, “Nuclear receptor err y 3” (FUJISAWA PHARMACEUTICAL CO., LTD, priority 2002, published 2006):

Target: T1, ERα (Homo sapiens, UniProt P03372)
T1 construct: expressed in transfected cells; host or cells: CV-1 (African green monkey kidney)
T1 sequence (P03372 1-595): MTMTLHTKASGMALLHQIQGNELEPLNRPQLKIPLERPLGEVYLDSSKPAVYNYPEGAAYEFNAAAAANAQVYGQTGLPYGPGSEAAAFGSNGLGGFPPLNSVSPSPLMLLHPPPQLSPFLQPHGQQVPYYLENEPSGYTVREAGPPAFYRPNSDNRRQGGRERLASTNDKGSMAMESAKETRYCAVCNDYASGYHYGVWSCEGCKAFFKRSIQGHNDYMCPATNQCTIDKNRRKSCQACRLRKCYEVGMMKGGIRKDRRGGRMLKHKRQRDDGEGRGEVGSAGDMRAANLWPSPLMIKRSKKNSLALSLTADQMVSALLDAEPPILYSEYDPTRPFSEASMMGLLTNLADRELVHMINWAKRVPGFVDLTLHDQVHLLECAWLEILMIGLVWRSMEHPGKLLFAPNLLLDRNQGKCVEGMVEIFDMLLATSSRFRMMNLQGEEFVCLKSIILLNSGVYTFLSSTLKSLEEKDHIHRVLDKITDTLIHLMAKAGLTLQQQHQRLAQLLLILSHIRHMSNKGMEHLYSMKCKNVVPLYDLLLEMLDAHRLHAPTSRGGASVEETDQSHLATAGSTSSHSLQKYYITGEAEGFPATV
Experiment: Reporter gene assay, ERRγ3 or ERRγ2 coexisted with ERα in CV-1 cells
Type: cell-based
Conditions: ERRγ2 with ERα, CV-1 cells; FIGS. 19-20
Description: The reporter gene assay was performed using CV-1 cells (African green monkey kidney-derived cell line) as hosts. Host cells were transfected with luciferase reporter plasmids and expression plasmids for ERRγ3, ERRγ2, or both. They were then exposed to 4-hydroxytamoxifen at different concentrations (0, 10^−10 to −10^−5 M) for 24 hours, whereupon luciferase activity within the cells was measured.
Transfection was performed as follows: CV-1 cells were suspended at 2×10^5 cells/2.5 ml in DMEM medium supplemented with 10% fetal bovine serum, 2000 U/l of penicillin G, and 100 mg/l streptomycin. These cells were seeded to a 6-well plate at 2.5 ml/well, and cultured for 18 to 24 hours in a CO2 incubator at 37° C. in the presence of 5% CO2. 1 μg of each of the transcription factor expression plasmid, the luciferase reporter plasmid, and another luciferase reporter plasmid for normalizing the measured value (pRL-TK), were dissolved in Opti-MEM (Gibco BRL) to total of 150 μl. 7 μl of the cell transfection reagent LipofectAMINE 2000 (Gibco BRL) was diluted in 143 μl of Opti-MEM, and this was added to the mixture drop by drop while stirring. The mixture was incubated for 20 minutes.
The LipofectAMINE-DNA mixture was diluted in 1.5 ml of Opti-MEM, and added to cells that had been twice washed with 1 ml of PBS(−). The cells were cultured for four hours. The transfection reagent was removed from the culture, and 200 μl of trypsin/EDTA was added to the cells, which were then incubated at 37° C. for five minutes. […] of DMEM was added to suspend the cells, which were transferred to a centrifuge tube, and centrifuged for three minutes at 1000 rpm. After centrifugation, the cells were resuspended in DMEM to a concentration of 1.6×10^4 cells/100 μl, and 100 μl samples were seeded to a 96-well plate. When evaluating agents, a two-fold concentrated solution was made by pre-diluting a 1000 times concentrated agent DMSO solution with culture medium. 50 μl of the solution was mixed with 50 μl of a cell suspension at 1.6×10^4 cells/50 μl, and the culture was incubated in a CO2 incubator at 37° C. and 5% CO2 for 24 hours.
Luciferase activity was measured using the Dual-Luciferase™ Reporter Assay System (Promega). The culture supernatant was removed from each well of the 96-well plate and washed once with 100 μl of PBS(−). 20 μl of ×1 PLB (Passive Lysis Buffer) was added, and the mixture was incubated at room temperature for 15 minutes, and then stored at −20° C. in the freezer until use. […] The protocol for measurement was as follows: 50 μl of Luciferase Assay Reagent II was added to each well, stirred for 0.3 seconds and measured for one second. […] of Stop&Glo™ Reagent was then added, stirred for 0.3 seconds, and measured for one second. […] Average values and standard errors were calculated from triplicate samples.
To confirm whether or not ERRγ3 can regulate the transcription-controlling function of nuclear receptors other than ERRγ2, ERRγ3's function of regulating the transcription-controlling activity of nuclear receptors related to ERRγ (ERα, ERβ, and TR) was evaluated using a reporter gene assay. […] In addition to 4-hydroxytamoxifen, the cells were also contacted with 10^−5 M of (R)-estradiol in experiments related to ERα and ERβ, and 10^−5 M of thyroxine in the experiment related to TR.
The transfected cells were contacted with varying concentrations of 4-hydroxytamoxifen in the absence of […] or presence of 10^−7 M of β-estradiol.

B1: ERRγ2: known human ERRγ isoform, the long form (SEQ ID NO: 6) (protein, listed as Homo sapiens)
chain: MDSVELCLPESFSLHYEEELLCRMSNKDRHIDSSCSSFIKTEPSSPASLTDSVNHHSPGGSSDASGSYSSTMNGHQNGLDSPPLYPSAPILGGSGPVRKLYDDCSSTIVEDPQTKCEYMLNSMPKRLCLVCGDIASGYHYGVASCEACKAFFKRTIQGNIEYSCPATNECEITKRRRKSCQACRFMKCLKVGMLKEGVRLDRVRGGRQKYKRRIDAENSPYLNPQLVQPAKKPYNKIVSHLLVAEPEKIYAMPDPTVPDSDIKALTTLCDLADRELVVIIGWAKHIPGFSTLSLADQMSLLQSAWMEILILGVVYRSLSFEDELVYADDYIMDEDQSKLAGLLDLNNAILQLVKKYKSMKLEKEEFVTLKAIALANSDSMHIEDVEAVQKLQDVLHEALQDYEAGQHMEDPRRAGKMLMTLPLLRQTSTKAVQHFYNIKLEGKVPMHKLFLEMLEAKV
How did the “enhancement of transcription when ERRγ2 coexisted with ERα” value turn out when B1 was run?
Its value is “showed the function of enhancing transcription”.
